Results taken from US20160017037A1 (GlaxoSmithKline, published 2016).
Substitutions are numbered along the chain they refer to.

T1: Recombinant human LAG-3 ECD-His6 (human, UniProt P18627 23-433)
T1 construct: also called LAG-3-His; recombinant human LAG-3-His
T1 sequence: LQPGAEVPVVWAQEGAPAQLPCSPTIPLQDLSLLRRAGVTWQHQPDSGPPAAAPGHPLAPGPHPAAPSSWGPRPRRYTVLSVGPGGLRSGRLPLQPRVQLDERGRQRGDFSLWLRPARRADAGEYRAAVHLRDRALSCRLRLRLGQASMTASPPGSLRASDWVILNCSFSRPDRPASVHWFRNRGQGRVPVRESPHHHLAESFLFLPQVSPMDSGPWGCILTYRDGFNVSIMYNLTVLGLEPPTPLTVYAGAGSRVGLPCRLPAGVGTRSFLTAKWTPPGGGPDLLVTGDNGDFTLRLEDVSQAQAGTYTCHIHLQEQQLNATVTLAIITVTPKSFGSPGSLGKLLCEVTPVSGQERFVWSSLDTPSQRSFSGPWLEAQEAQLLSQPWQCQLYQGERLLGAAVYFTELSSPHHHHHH

T2: recombinant soluble human FcγRIIa R131 (human, UniProt P12318 36-218, limits assumed)
T2 sequence (looked up): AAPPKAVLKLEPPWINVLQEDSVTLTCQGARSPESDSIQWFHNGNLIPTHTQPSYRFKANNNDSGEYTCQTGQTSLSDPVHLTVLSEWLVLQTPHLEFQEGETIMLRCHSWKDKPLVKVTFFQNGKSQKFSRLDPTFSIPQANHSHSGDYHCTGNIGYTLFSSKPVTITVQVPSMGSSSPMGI

T3: recombinant soluble human FcγRIIa H131 (human, UniProt P12318 36-218, limits assumed)
T3 sequence (looked up): T2 sequence (looked up) with R132H

B1: H5L7BW (antibody, human IgG1, kappa)
heavy: not shown
light: DIQMTQSPSSLSASVGDRVTITCKSSQSLLNPSNQKNYLAWYQQKPGKAPKLLVYFASTRDSGVPSRFSGSGSGTDFTLTISSLQPEDFATYYCLQHFGTPPTFGQGTKLEIKRTVAAPSVFIFPPSDEQLKSGTASVVCLLNNFYPREAKVQWKVDNALQSGNSQESVTEQDSKDSTYSLSSTLTLSKADYEKHKVYACEVTHQGLSSPVTKSFNRGEC
modifications: afucosylated: no fucose on the core carbohydrate structure attached to Asn297
notes: Same plasmids as H5L7, expressed in the BioWa POTELLIGENT (FUT8 knock-out CHO) cell line; also called afucosylated antibody H5L7BW; afucosylated H5L7
B2: H5L7 (antibody, human IgG1, kappa)
heavy: not shown
light: B1 light
notes: Humanised IgG1/kappa of A9H12 (IMP731); also called fucosylated H5L7; non-ADCC enhanced variant H5L7
B3: IMP731 (antibody, human IgG1, kappa)
heavy: not shown
light: DIVMTQSPSSLAVSVGQKVTMSCKSSQSLLNGSNQKNYLAWYQQKPGQSPKLLVYFASTRDSGVPDRFIGSGSGTDFTLTISSVQAEDLADYFCLQHFGTPPTFGGGTKLEIKRTVAAPSVFIFPPSDEQLKSGTASVVCLLNNFYPREAKVQWKVDNALQSGNSQESVTEQDSKDSTYSLSSTLTLSKADYEKHKVYACEVTHQGLSSPVTKSFNRGEC
notes: Chimeric (murine variable domains, human IgG1/kappa constant regions); also called A9H12; chimeric antibody IMP731

Molecular target: T1, Recombinant human LAG-3 ECD-His6
Assay: SPR Biacore T100, antibody captured on Protein A, LAG-3 ECD-His6 analyte, 1:1 model, 25 C, geometric mean of 3 runs
Procedure: Wild type fucosylated and afucosylated antibodies were compared for their ability to bind to recombinant human LAG-3 ECD with a C-terminal His6 (SEQ ID NO:51) using the Biacore™ T100 (GE Healthcare™). Protein A was immobilised on a CM5 chip by primary amine coupling. This surface was then used to capture the humanised antibodies. Recombinant human LAG-3 ECD-His6 was then passed over the captured antibodies at 32, 8, 2, 0.5 and 0.125 nM and regeneration was carried out using 50 mM NaOH. The binding curves were double referenced with buffer injection (i.e. 0 nM) and the data was fitted to the T100 analysis software using the 1:1 model. The run was carried out at 25° C., using HBS-EP as the running buffer.
In order to investigate the statistical significance of this kinetic data, this experiment was repeated 3 times with the same batch of the four antibodies and the chimeric control. KD, ka and kd parameters were each log (base 10) transformed prior to separate statistical analyses. For each parameter, a mixed model analysis of variance CAnova′) was performed on transformed data, including terms for Run (random block effect) and Antibody.

Q: B1 was tested. Which koff did it give?
A: Its koff is 0.00441 s⁻¹.

Q: B2 was tested. Which koff did it give?
A: The koff was 0.00395 s⁻¹.

Q: With B3 as the binder, how does the koff read?
A: The koff was 0.0275 s⁻¹.

Molecular target: T4, recombinant soluble human FcγRI (human, UniProt P12314 16-288, limits assumed)
T4 construct: also called CD64
Assay: SPR ProteOn XPR36, His-tagged receptor captured on anti-poly-histidine IgG, antibody analyte 8-2048 nM, equilibrium model, 25 C
Procedure: (§1) A goat anti-poly-histidine IgG was immobilised on a GLM biosensor chip by primary amine coupling. This surface was used as a capture surface for the poly-histidine tagged human Fc gamma receptors. […] The goat anti-poly-histidine IgG surface was regenerated with 100 mM phosphoric acid between interactions. The run was carried out on the ProteOn XPR36 Protein Array Interaction System at 25° C. and using HBS-EP as running buffer. Data was analysed for each receptor separately, setting a global R-max and using the Equilibrium Model inherent to the ProteOn's analysis software. Control molecules were run at the beginning and the end of the set of samples to be tested to ensure comparability of results. Data was compared from two experiments and hybrid control antibodies used as controls between experiments.

T4 sequence (P12314 16-288 limits assumed): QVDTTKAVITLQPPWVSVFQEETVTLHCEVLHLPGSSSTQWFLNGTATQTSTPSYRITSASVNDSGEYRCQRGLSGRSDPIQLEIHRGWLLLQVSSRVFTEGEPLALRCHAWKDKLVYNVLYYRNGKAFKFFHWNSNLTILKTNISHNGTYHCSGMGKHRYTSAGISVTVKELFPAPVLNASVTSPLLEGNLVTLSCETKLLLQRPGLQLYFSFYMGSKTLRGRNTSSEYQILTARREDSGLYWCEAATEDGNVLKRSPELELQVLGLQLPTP

Q: For B1, which Kd is on record?
A: The Kd was 26.4 nM.

Q: How did the Kd turn out when B2 was run?
A: The Kd was 26.3 nM.

Q: With B3 as the binder, how does the Kd read?
A: The Kd was 39 nM.

Molecular target: T2, recombinant soluble human FcγRIIa R131
Assay: as above
Procedure: as §1

Q: Which Kd does the source give for B1 here?
A: The Kd was 1490 nM.

Q: For B2, which Kd is on record?
A: Its Kd is 792 nM.

Q: How did the Kd turn out when B3 was run?
A: Its Kd is 2620 nM.

Molecular target: T3, recombinant soluble human FcγRIIa H131
Assay: as above
Procedure: as §1

Q: Which Kd does the source give for B1 here?
A: The Kd was 1430 nM.

Q: B2 was tested. Which Kd did it give?
A: Its Kd is 638 nM.

Q: How did the Kd turn out when B3 was run?
A: The Kd was 1280 nM.

Molecular target: T5, recombinant soluble human FcγRIIIa V158 (human, UniProt P08637 17-208)
T5 construct: also called FcγRIIIa valine V158; CD16
Assay: as above
Procedure: as §1

T5 sequence (P08637 17-208 F176V limits assumed): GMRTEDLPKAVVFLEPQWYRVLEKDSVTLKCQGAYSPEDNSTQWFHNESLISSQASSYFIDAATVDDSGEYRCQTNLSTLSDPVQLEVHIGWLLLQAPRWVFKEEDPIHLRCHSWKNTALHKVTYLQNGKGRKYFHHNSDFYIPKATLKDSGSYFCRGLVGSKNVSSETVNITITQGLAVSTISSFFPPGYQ

Q: Which Kd does the source give for B1 here?
A: Its Kd is 21.8 nM.

Q: B2 was tested. Which Kd did it give?
A: The Kd was 236 nM.

Q: Which Kd does the source give for B3 here?
A: Its Kd is 406 nM.

Molecular target: T6, recombinant soluble human FcγRIIIa F158 (human, UniProt P08637 17-208)
T6 construct: also called FcγRIIIa phenylalanine F158; CD16
Assay: as above
Procedure: as §1

T6 sequence (P08637 17-208 limits assumed): as the sequence (P08637 17-208 F176V limits assumed) above, with V160F counted along it

Q: With B1 as the binder, how does the Kd read?
A: The Kd was 81.1 nM.

Q: B2 was tested. Which Kd did it give?
A: The Kd was 752 nM.

Q: For B3, which Kd is on record?
A: The Kd was 1750 nM.
